The target in assay [1] is Gag-CY (HIV-1). Briefly: split reporter (BiFC, NanoBiT); BiFC quantified by flow cytometry: 293T cells co-transfected with 0.25 μg of each BiFC construct and mRFP1, harvested about 14 h after transfection and fixed; percent of mRFP+ cells that are YFP+, and mean intensity of YFP+ cells. For orientation: In flow cytometry, cells or beads pass a laser one at a time.
Assay [2] deals with Gag-CY (HIV-1). The description is as above. This is another data set of the same source.

Like-named read-outs stand apart in the source and are kept apart here.

Take Gag-NY (natural protein): the results for the percent of mRFP+ cells that are YFP+ (BiFC) with Gag-CY (HIV-1) [1] and with Gag-CY (HIV-1) [2] were 3.3% and 3.5%, respectively.
